Molecular target: T1, GST-VRK1 (human, UniProt Q99986 1-396)
T1 sequence (looked up): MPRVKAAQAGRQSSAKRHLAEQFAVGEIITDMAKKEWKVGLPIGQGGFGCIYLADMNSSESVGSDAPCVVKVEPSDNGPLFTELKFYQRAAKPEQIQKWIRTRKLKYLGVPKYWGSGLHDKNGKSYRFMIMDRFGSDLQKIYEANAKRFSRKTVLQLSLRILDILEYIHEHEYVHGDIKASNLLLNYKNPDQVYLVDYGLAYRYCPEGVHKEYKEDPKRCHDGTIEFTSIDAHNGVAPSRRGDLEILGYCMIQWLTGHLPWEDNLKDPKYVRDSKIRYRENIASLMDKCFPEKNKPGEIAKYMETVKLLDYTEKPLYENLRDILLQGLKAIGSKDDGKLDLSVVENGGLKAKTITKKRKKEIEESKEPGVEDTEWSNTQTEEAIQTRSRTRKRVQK
Assay: cell-based or functional assay

IC50 of SIRT2 for inhibition of VRK1 autophosphorylation (in vitro kinase assay, dose-dependent): 190 nM | IC50 of SIRT2 for inhibition of the phosphorylation of histone H3 by VRK1 (in vitro kinase assay, dose-dependent): 150 nM
B1: SIRT2-his (enzyme, human, UniProt Q8IXJ6 1-389, looked up)
chain: MAEPDPSHPLETQAGKVQEAQDSDSDSEGGAAGGEADMDFLRNLFSQTLSLGSQKERLLDELTLEGVARYMQSERCRRVICLVGAGISTSAGIPDFRSPSTGLYDNLEKYHLPYPEAIFEISYFKKHPEPFFALAKELYPGQFKPTICHYFMRLLKDKGLLLRCYTQNIDTLERIAGLEQEDLVEAHGTFYTSHCVSASCRHEYPLSWMKEKIFSEVTPKCEDCQSLVKPDIVFFGESLPARFFSCMQSDFLKVDLLLVMGTSLQVQPFASLISKAPLSTPRLLINKEKAGQSDPFLGMIMGLGGGMDFDSKKAYRDVAWLGECDQGCLALAELLGWKKELEDLVRREHASIDAQSGAGVPNPSTSASPKKSPPPAKDEARTTEREKPQ
